From patent US20110274702A1 come the findings set out here.

The target of assay [1] is H7N7 A/Netherlands/219/03 HA protein (influenza A virus H7N7 A/Netherlands/219/03). Kind of assay: ELISA on HA. On the technique in general: ELISA stands for enzyme-linked immunosorbent assay.
Assay [2] shares this target. Kind of assay: ELISA on coated HA.

B1: FI6 variant 2 (antibody, V domains shown)
VH: QVQLVQSGGGVVQPGRSLRLSCVASGFTFSTYAMHWVRQAPGRGLEWVAVISYDGNYKYYADSVKGRFSISRDNSNNTLHLEMNTLRTEDTALYYCAKDSQLRSLLYFEWLSQGYFDPWGQGTLVTVTS
VL: DIQMTQSPDSLAVSLGARATINCKSSQSVTFNYKNYLAWYQQKPGQPPKVLIYWASARESGVPDRFSGSGSGTDFTLTISSLQAEDVAVYYCQQHYRTPPTFGQGTKVEIK
For the molecule B1, the Binding to HA by ELISA (% of subtype specific control antibodies) in assay [1] is 87.9%. The molecule also came in with an EC50 in assay [2] of 0.026 µg/mL.

B2: FI28 variant 1 (antibody, V domains shown)
VH: EVQLVESGGGAVQPGESLKLSCAASGFTFSNYGMHWVRQAPGKGLEWVAVISYDGSNKYYADSVKGRFTISRDNSKDTLYLQMNSLRAEDTALFYCAKERPLRLLRYFDWLSGGANDYWGQGTLVTVSS
VL: DIVMTQSPDSLAVSLGERATINCKSSQSVLYSSNNKNYLAWYQQKPGQPPKLLIDWASTRESGVPDRFSGSGSGTDFTLTISNLQVEDVAVYYCQQYYRSPSFGQGTKLEIK
With B2, the Binding to HA by ELISA (% of subtype specific control antibodies) in assay [1] was -0.5%.

The term EC50 denotes the midpoint of the concentration-response curve. A lower EC50 goes with greater potency.
